Results as given in paper PMC2783235.

What was measured:
[1] = molecular target: A296C (single-Cys mutant of FT-HT-Xa) (S. cerevisiae) (UniProt D6VTK4); assay: cross-linking
[2] = molecular target: A296C (single-Cys mutant of FT-HT-Xa) (S. cerevisiae) (UniProt D6VTK4); assay: cross-linking; remark: listed apart in the source
[3] = molecular target: A296C (single-Cys mutant of FT-HT-Xa) (S. cerevisiae) (UniProt D6VTK4); assay: SDS-PAGE and western blot of membranes
[4] = molecular target: A296C (single-Cys mutant of FT-HT-Xa) (S. cerevisiae) (UniProt D6VTK4); assay: cross-linking; remark: listed apart in the source
[5] = molecular target: L64C (single-Cys mutant of FT-HT-Xa) (S. cerevisiae) (UniProt D6VTK4); assay: cross-linking
[6] = molecular target: L64C (single-Cys mutant of FT-HT-Xa) (S. cerevisiae) (UniProt D6VTK4); assay: cross-linking; remark: listed apart in the source
[7] = molecular target: L64C (single-Cys mutant of FT-HT-Xa) (S. cerevisiae) (UniProt D6VTK4); assay: SDS-PAGE and western blot of membranes
[8] = molecular target: L64C (single-Cys mutant of FT-HT-Xa) (S. cerevisiae) (UniProt D6VTK4); assay: cross-linking; remark: listed apart in the source
[9] = molecular target: L291C (single-Cys mutant of FT-HT-Xa) (S. cerevisiae) (UniProt D6VTK4); assay: cross-linking
[10] = molecular target: L291C (single-Cys mutant of FT-HT-Xa) (S. cerevisiae) (UniProt D6VTK4); assay: cross-linking; remark: listed apart in the source
[11] = molecular target: L291C (single-Cys mutant of FT-HT-Xa) (S. cerevisiae) (UniProt D6VTK4); assay: SDS-PAGE and western blot of membranes
[12] = molecular target: L291C (single-Cys mutant of FT-HT-Xa) (S. cerevisiae) (UniProt D6VTK4); assay: cross-linking; remark: listed apart in the source
[13] = molecular target: M294C (single-Cys mutant of FT-HT-Xa) (S. cerevisiae) (UniProt D6VTK4); assay: cross-linking
[14] = molecular target: M294C (single-Cys mutant of FT-HT-Xa) (S. cerevisiae) (UniProt D6VTK4); assay: cross-linking; remark: listed apart in the source
[15] = molecular target: M294C (single-Cys mutant of FT-HT-Xa) (S. cerevisiae) (UniProt D6VTK4); assay: SDS-PAGE and western blot of membranes
[16] = molecular target: M294C (single-Cys mutant of FT-HT-Xa) (S. cerevisiae) (UniProt D6VTK4); assay: cross-linking; remark: listed apart in the source
[17] = molecular target: S292C (single-Cys mutant of FT-HT-Xa) (S. cerevisiae) (UniProt D6VTK4); assay: cross-linking
[18] = molecular target: S292C (single-Cys mutant of FT-HT-Xa) (S. cerevisiae) (UniProt D6VTK4); assay: cross-linking; remark: listed apart in the source
[19] = molecular target: S292C (single-Cys mutant of FT-HT-Xa) (S. cerevisiae) (UniProt D6VTK4); assay: SDS-PAGE and western blot of membranes
[20] = molecular target: S292C (single-Cys mutant of FT-HT-Xa) (S. cerevisiae) (UniProt D6VTK4); assay: cross-linking; remark: listed apart in the source
[21] = molecular target: S293C (single-Cys mutant of FT-HT-Xa) (S. cerevisiae) (UniProt D6VTK4); assay: cross-linking
[22] = molecular target: S293C (single-Cys mutant of FT-HT-Xa) (S. cerevisiae) (UniProt D6VTK4); assay: cross-linking; remark: listed apart in the source
[23] = molecular target: S293C (single-Cys mutant of FT-HT-Xa) (S. cerevisiae) (UniProt D6VTK4); assay: SDS-PAGE and western blot of membranes
[24] = molecular target: S293C (single-Cys mutant of FT-HT-Xa) (S. cerevisiae) (UniProt D6VTK4); assay: cross-linking; remark: listed apart in the source
[25] = molecular target: T65C (single-Cys mutant of FT-HT-Xa) (S. cerevisiae) (UniProt D6VTK4); assay: cross-linking
[26] = molecular target: T65C (single-Cys mutant of FT-HT-Xa) (S. cerevisiae) (UniProt D6VTK4); assay: cross-linking; remark: listed apart in the source
[27] = molecular target: T65C (single-Cys mutant of FT-HT-Xa) (S. cerevisiae) (UniProt D6VTK4); assay: SDS-PAGE and western blot of membranes
[28] = molecular target: T65C (single-Cys mutant of FT-HT-Xa) (S. cerevisiae) (UniProt D6VTK4); assay: cross-linking; remark: listed apart in the source
[29] = molecular target: W295C (single-Cys mutant of FT-HT-Xa) (S. cerevisiae) (UniProt D6VTK4); assay: cross-linking
[30] = molecular target: W295C (single-Cys mutant of FT-HT-Xa) (S. cerevisiae) (UniProt D6VTK4); assay: cross-linking; remark: listed apart in the source
[31] = molecular target: W295C (single-Cys mutant of FT-HT-Xa) (S. cerevisiae) (UniProt D6VTK4); assay: SDS-PAGE and western blot of membranes
[32] = molecular target: W295C (single-Cys mutant of FT-HT-Xa) (S. cerevisiae) (UniProt D6VTK4); assay: cross-linking; remark: listed apart in the source

## A296C (single-Cys mutant of FT-HT-Xa) (from UniProt D6VTK4 1-431) (receptor)
[1]
  percent dimer: 91.1%
[2]
  percent dimer: 73.6%
[3]
  percent dimer: 14.8%
[4]
  percent dimer: 82.1%

## L64C (single-Cys mutant of FT-HT-Xa) (from UniProt D6VTK4 1-431) (receptor)
[5]
  percent dimer: 11.3%
[6]
  percent dimer: 14.6%
[7]
  percent dimer: 15.8%
[8]
  percent dimer: 13.6%

## L291C (single-Cys mutant of FT-HT-Xa) (from UniProt D6VTK4 1-431) (receptor)
[9]
  percent dimer: 66.4%
[10]
  percent dimer: 52%
[11]
  percent dimer: 31.8%
[12]
  percent dimer: 44.5%

## M294C (single-Cys mutant of FT-HT-Xa) (from UniProt D6VTK4 1-431) (receptor)
[13]
  percent dimer: 75.6%
[14]
  percent dimer: 57.8%
[15]
  percent dimer: 27%
[16]
  percent dimer: 50.8%

## S292C (single-Cys mutant of FT-HT-Xa) (from UniProt D6VTK4 1-431) (receptor)
[17]
  percent dimer: 82.3%
[18]
  percent dimer: 75.5%
[19]
  percent dimer: 30.2%
[20]
  percent dimer: 65.9%

## S293C (single-Cys mutant of FT-HT-Xa) (from UniProt D6VTK4 1-431) (receptor)
[21]
  percent dimer: 70.2%
[22]
  percent dimer: 38.5%
[23]
  percent dimer: 21.1%
[24]
  percent dimer: 44%

## T65C (single-Cys mutant of FT-HT-Xa) (from UniProt D6VTK4 1-431) (receptor)
[25]
  percent dimer: 14.4%
[26]
  percent dimer: 15.9%
[27]
  percent dimer: 16.2%
[28]
  percent dimer: 12.8%

## W295C (single-Cys mutant of FT-HT-Xa) (from UniProt D6VTK4 1-431) (receptor)
[29]
  percent dimer: 95.2%
[30]
  percent dimer: 76.2%
[31]
  percent dimer: 15.7%
[32]
  percent dimer: 86.3%
